Assays:
[1] = biological target: human α4β7 integrin (human) (UniProt P13612); test: blockade of HuT78 adhesion to coated VCAM-1 hFc, experiment 3
[2] = biological target: human α4β7 integrin (human) (UniProt P13612); test: blockade of HuT78 adhesion to coated VCAM-1 hFc, experiment 1
[3] = biological target: human α4β7 integrin (human) (UniProt P13612); test: blockade of HuT78 adhesion to coated VCAM-1 hFc, experiment 2
[4] = biological target: human α4β7 integrin (human) (UniProt P13612); test: blockade of HuT78 adhesion to coated VCAM-1 hFc, average N = 3
[5] = biological target: human α4β7 integrin (human) (UniProt P13612); test: FACS, 1 µg/ml, BaF3-hα4β7 cells
[6] = biological target: cynomolgus α4β7 integrin (cynomolgus monkey); test: FACS, 1 µg/ml, CHOK1-cα4β7 cells
[7] = biological target: human α4β1 integrin (human) (UniProt P05556); test: FACS, 1 µg/ml, CHOK1-hα4β1 cells
[8] = biological target: human α4β7 integrin (human) (UniProt P13612); test: competitive FACS, 50x excess of non-labelled competitor Ab-Etro
[9] = biological target: human α4β7 integrin (human) (UniProt P13612); test: blockade of HuT78 cell adhesion to MAdCAM-1
[10] = biological target: human α4β7 integrin (human) (UniProt P13612); test: FACS, primary human CD4+ memory T cells
[11] = biological target: human α4β7 integrin (human) (UniProt P13612); test: competitive FACS, 50x excess of non-labelled competitor Ab-m1
[12] = biological target: human α4β7 integrin (human) (UniProt P13612); test: competitive FACS, 50x excess of non-labelled competitor Ab-Vedo
[13] = biological target: human αEβ7 integrin (human) (UniProt P38570); test: FACS, 1 µg/ml, BaF3-hαEβ7 cells
[14] = biological target: human α4β7 integrin (human) (UniProt P13612); test: competitive FACS, 50x excess of non-labelled competitor Ab-Abri
[15] = biological target: cynomolgus αEβ7 integrin (cynomolgus monkey); test: FACS, 1 µg/ml, BaF3-cαEβ7 cells
[16] = biological target: cynomolgus α4β7 integrin (cynomolgus monkey); test: blockade of CHOK1-cα4β7 cell adhesion to MAdCAM-1
[17] = biological target: cynomolgus α4β7 integrin (cynomolgus monkey); test: blockade of CHOK1/cα4β7 adhesion to MAdCAM-1
[18] = biological target: human α4β7 integrin (human) (UniProt P13612); test: FACS titration on BaF3-hα4β7
[19] = biological target: mouse α4β7 integrin (mouse) (UniProt Q00651); test: FACS, 1 µg/ml, CHOK1-mα4β7 cells
[20] = biological target: human α4β7 integrin (human) (UniProt P13612); test: row IC50 (pM) HuT78 of the binning table (assay not explained, presumably adhesion to MAdCAM-1)

Sequence of mouse α4β7 integrin (mouse) (Q00651 41-1039, chain 1 of 2): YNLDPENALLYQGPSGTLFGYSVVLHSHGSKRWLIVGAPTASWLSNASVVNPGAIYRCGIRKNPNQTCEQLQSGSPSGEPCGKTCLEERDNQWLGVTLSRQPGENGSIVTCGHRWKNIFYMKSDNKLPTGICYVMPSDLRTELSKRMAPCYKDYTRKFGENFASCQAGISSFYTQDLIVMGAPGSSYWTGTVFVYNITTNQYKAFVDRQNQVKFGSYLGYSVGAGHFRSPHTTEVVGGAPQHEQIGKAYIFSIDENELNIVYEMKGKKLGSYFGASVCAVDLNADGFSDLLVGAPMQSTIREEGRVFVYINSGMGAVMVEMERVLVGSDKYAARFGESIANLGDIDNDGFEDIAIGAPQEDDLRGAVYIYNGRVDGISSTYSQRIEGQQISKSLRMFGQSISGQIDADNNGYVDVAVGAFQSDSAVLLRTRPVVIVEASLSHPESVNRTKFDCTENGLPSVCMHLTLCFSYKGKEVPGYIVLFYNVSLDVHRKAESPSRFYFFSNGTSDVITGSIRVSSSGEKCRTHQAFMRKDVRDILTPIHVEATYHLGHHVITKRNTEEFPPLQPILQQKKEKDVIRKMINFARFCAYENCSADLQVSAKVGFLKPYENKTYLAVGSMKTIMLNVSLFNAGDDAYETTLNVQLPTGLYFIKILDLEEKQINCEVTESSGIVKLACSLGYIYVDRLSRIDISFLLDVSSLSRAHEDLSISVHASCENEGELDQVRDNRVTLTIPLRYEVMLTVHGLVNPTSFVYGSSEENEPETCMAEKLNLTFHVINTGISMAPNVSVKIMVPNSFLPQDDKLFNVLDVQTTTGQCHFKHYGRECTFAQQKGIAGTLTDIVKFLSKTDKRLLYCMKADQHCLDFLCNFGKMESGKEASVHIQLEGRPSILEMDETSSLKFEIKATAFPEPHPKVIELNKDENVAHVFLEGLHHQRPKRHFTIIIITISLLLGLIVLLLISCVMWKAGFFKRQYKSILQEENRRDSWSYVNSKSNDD
Sequence of mouse α4β7 integrin (mouse) (P26011 20-806, chain 2 of 2, further chain): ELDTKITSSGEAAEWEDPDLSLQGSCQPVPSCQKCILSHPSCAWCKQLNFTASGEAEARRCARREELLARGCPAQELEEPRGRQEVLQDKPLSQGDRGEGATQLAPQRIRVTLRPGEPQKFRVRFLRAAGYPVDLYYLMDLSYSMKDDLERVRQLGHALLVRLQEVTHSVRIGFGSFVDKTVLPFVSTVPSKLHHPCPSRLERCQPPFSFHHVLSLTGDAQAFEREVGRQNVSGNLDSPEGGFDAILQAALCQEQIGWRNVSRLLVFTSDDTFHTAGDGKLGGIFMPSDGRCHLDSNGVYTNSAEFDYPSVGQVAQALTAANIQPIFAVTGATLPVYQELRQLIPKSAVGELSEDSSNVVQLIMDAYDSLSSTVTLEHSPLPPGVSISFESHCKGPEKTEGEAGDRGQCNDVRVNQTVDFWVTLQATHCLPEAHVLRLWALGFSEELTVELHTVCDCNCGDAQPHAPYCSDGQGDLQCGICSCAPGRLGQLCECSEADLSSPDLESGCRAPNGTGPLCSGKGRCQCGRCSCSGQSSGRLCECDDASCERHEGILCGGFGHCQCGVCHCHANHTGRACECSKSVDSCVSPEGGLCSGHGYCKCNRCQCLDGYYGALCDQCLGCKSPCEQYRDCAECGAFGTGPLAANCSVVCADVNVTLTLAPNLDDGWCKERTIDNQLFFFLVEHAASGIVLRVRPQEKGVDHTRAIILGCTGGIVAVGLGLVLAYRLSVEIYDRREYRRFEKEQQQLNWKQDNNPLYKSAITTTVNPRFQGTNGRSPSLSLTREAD

B1: Ab-Nata (antibody, INN chains, looked up, V domains shown)
VH: QVQLVQSGAEVKKPGASVKVSCKASGFNIKDTYIHWVRQAPGQRLEWMGRIDPANGYTKYDPKFQGRVTITADTSASTAYMELSSLRSEDTAVYYCAREGYYGNYGVYAMDYWGQGTLVTVSS
VL: DIQMTQSPSSLSASVGDRVTITCKTSQDINKYMAWYQQTPGKAPRLLIHYTSALQPGIPSRFSGSGSGRDYTFTISSLQPEDIATYYCLQYDNLWTFGQGTKVEIKR
IC50 [1]: 0.077 nM | IC50 [2]: 0.038 nM | IC50 [3]: 0.054 nM | IC50 [4]: 0.056 nM

B2: Ab-Etro (antibody, INN chains, looked up, V domains shown)
VH: EVQLVESGGGLVQPGGSLRLSCAASGFFITNNYWGWVRQAPGKGLEWVGYISYSGSTSYNPSLKSRFTISRDTSKNTFYLQMNSLRAEDTAVYYCARTGSSGYFDFWGQGTLVTVSS
VL: DIQMTQSPSSLSASVGDRVTITCRASESVDDLLHWYQQKPGKAPKLLIKYASQSISGVPSRFSGSGSGTDFTLTISSLQPEDFATYYCQQGNSLPNTFGQGTKVEIK
modifications: IgG1 Alexa488 conjugate
FACS MFI [5]: 440 MFI | FACS MFI [6]: 97.2 MFI | FACS MFI [7]: 4.53 MFI | percentage of binding inhibition [8]: 93% | IC50 [9]: 0.0178 nM | Max inhibition (%) [9]: 104% | EC50 [10]: 0.0054 nM | percentage of binding inhibition [11]: -1% | percentage of binding inhibition [12]: 6% | FACS MFI [13]: 73.2 MFI | percentage of binding inhibition [14]: 60% | FACS MFI [15]: 247 MFI | IC50 [16]: 0.241 nM | Max inhibition (%) [16]: 91.5% | IC50 [17]: 0.0499 nM | EC50 [18]: 0.705 nM | Max MFI [18]: 951 MFI | FACS MFI [19]: 92.2 MFI | IC50 [20]: 0.0178 nM

B3: Ab-Abri (antibody, INN chains, looked up, V domains shown)
VH: QVQLVQSGAEVKKPGASVKVSCKVSGYTLSDLSIHWVRQAPGKGLEWMGGFDPQDGETIYAQKFQGRVTMTEDTSTDTAYMELSSLKSEDTAVYYCATGSSSSWFDPWGQGTLVTVSS
VL: DIQMTQSPSSVSASVGDRVTITCRASQGISSWLAWYQQKPGKAPKLLIYGASNLESGVPSRFSGSGSGTDFTLTISSLQPEDFANYYCQQANSFPWTFGQGTKVEIK
modifications: IgG2 Alexa488 conjugate
FACS MFI [5]: 624 MFI | FACS MFI [6]: 89.8 MFI | FACS MFI [7]: 4.25 MFI | percentage of binding inhibition [8]: 80% | IC50 [9]: 0.0129 nM | Max inhibition (%) [9]: 103% | EC50 [10]: 0.0049 nM | percentage of binding inhibition [11]: 73% | percentage of binding inhibition [12]: 88% | FACS MFI [13]: 9.81 MFI | percentage of binding inhibition [14]: 89% | FACS MFI [15]: 68.3 MFI | IC50 [16]: 0.0994 nM | Max inhibition (%) [16]: 95.9% | IC50 [17]: 0.0509 nM | EC50 [18]: 0.679 nM | Max MFI [18]: 775 MFI | FACS MFI [19]: 2.87 MFI | IC50 [20]: 0.0129 nM

From US20260062488A1
